In PMC11901735 (Molecules, 2025):

Key:
[1] = target: Ex-4-C40, exendin-4 with an additional Cys at the C-terminus (UniProt P26349 48-87); assay: SPR; Biacore T200; recombinant human GLP-1R (0.5 μM) immobilized on a CM5 sensor chip; peptides injected at four-fold serial dilutions (0, 0.1-100 nM); n = 3; 1:1 interaction model; conditions: both partners purified
exendin-4 = exendin-4 (UniProt P26349 48-87); assay: as above; conditions: both partners purified

B1: Recombinant human GLP-1R protein (receptor)
chain: RPQGATVSLWETVQKWREYRRQCQRSLTEDPPPATDLFCNRTFDEYACWPDGEPGSFVNVSCPWYLPWASSVPQGHVYRFCTAEGLWLQKDNSSLPWRDLSECEESKRGERSSPEEQLLFLY
modifications: Limits are not printed. The Sino Biological H02H catalogue suffix suggests a soluble extracellular domain with a C-terminal human Fc (left out). Residues 24-145 are the usual ectodomain construct …
Question: With B1 as the binder, how does the Kd [1] read?
Answer: The Kd was 0.036 µM.

Question: What about the Kd (exendin-4) of the same binder?
Answer: The Kd was 0.0336 µM.
